Test results from PMC12044017, “CDK4/6-mediated phosphorylation of DUB3 promotes YAP1 stability and hepatocellular carcinoma progression” (Cell Death Discovery, 2025).

Target: T1, His-DUB3 (UniProt Q6R6M4 1-530)
T1 construct: deubiquitinase DUB3 (USP17L2), cloned into pET30a; the methods name only GST-DUB3 WT and His-YAP1
T1 sequence (looked up): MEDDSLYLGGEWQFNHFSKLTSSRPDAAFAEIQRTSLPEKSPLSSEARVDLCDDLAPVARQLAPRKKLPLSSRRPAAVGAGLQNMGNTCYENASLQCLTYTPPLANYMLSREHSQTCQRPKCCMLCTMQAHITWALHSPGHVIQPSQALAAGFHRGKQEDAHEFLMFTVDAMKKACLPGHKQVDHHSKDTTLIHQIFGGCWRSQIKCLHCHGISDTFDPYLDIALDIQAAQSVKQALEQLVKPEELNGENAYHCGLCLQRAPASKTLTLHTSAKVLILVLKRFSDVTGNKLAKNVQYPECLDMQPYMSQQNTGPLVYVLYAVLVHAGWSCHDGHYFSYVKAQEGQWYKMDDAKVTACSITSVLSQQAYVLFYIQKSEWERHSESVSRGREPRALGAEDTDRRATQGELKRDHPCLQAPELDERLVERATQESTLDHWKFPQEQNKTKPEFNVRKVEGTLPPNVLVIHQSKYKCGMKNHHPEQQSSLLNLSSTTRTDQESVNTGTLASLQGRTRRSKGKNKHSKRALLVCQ
Experiment: pull-down; GST-fusion protein on Pierce Glutathione agarose mixed with purified His-tagged protein at 4 °C for 2 hours; beads washed four times; western blot
Conditions: both partners purified

binding result: binds
B1: GST-CDK4 (enzyme, UniProt P11802 1-303, looked up)
chain: MATSRYEPVAEIGVGAYGTVYKARDPHSGHFVALKSVRVPNGGGGGGGLPISTVREVALLRRLEAFEHPNVVRLMDVCATSRTDREIKVTLVFEHVDQDLRTYLDKAPPPGLPAETIKDLMRQFLRGLDFLHANCIVHRDLKPENILVTSGGTVKLADFGLARIYSYQMALTPVVVTLWYRAPEVLLQSTYATPVDMWSVGCIFAEMFRRKPLFCGNSEADQLGKIFDLIGLPPEDDWPRDVSLPRGAFPPRGPRPVQSVVPEMEESGAQLLLEMLTFNPHKRISAFRALQHSYLHKDEGNPE
notes: cyclin-dependent kinase 4 (CDK4); no cyclin partner is mentioned; also called cyclin-dependent kinase 4; source: bacterial-purified recombinant; GST-fusion proteins purified on Pierce Glutathione agarose
